From the Human Domainome abundance scans (Beltran et al. 2025)

B1: Transcription factor SOX-4, residues 60 to 127; numbered along this chain, Q06945 (parent)
chain: KRPMNAFMVWSQIERRKIMEQSPDMHNAEISKRLGKRWKLLKDSDKIPFIREAERLRLKHMADYPDYK

Variants of: B1
Assay: abundance fitness (aPCA) (normalised: wild type 0, dead -1); higher = more abundant; growth selection in yeast, the domain comes from the species named
Details: Homo sapiens

Abundance fitness, by site and new letter:
N27: F -0.245, S 0.07, C -0.164, T -0.049, Y -0.179, V -0.07, H 0.059, D 0.147, A 0.004, I -0.192, K -0.03, L -0.162, W -0.019, M -0.043, P 0.184, G -0.103, R -0.112
R16: L -0.154, Y -0.416, Q -0.023, I -0.216, T -0.077, F -0.368, M -0.212, V -0.111, C -0.206, D -0.223, P -0.234, G -0.254, A -0.011, S -0.174
K17: C -0.857, M -0.401, P -0.987, L -0.215, I -0.178, S -0.439, H -0.426, A -0.765, N -0.262, W -0.87, D -0.459, E -1.1, Q -0.092, Y -0.421, G -0.783, V -0.318, F -0.353
E20: N -0.478, M -0.239, L -0.284, A -0.265, H -0.143, K -0.439, P -0.524, T -0.296, C -0.478, S -0.497, G -0.343, Y -0.88, W -0.626, D -0.255, I -0.227, F -0.601, R -0.364, Q -0.142
M25: D -0.397, G -0.713, I 0.004, Y -0.679, V -0.125, A -0.019, K -0.216, Q -0.595, S -0.416, E -0.323, W -0.672, T -0.189, C -0.258, R -0.591, F -0.614
Q21: C -0.581, S -0.163, N -0.382, T -0.085, L -0.349, W -0.884, Y -0.63, F -0.426, M -0.244, I -0.128, D -0.346, P -0.874, H -0.282, V -0.2, E -0.062, A -0.169, K -0.204, R -0.267
S22: K -0.191, Y 0.066, V -0.272, W 0.016, A -0.074, M -0.276, G -0.4, L -0.458, P -0.745, E -0.027, T -0.326, F 0.106, H -0.01, D -0.034, R -0.211
I30: H -1.11, P -0.976, Q -0.7, K -0.999, G -0.769, V 0.022, C -0.277, E -0.8, F -0.912, S -0.858, D -0.871, Y -0.8, T -0.661, W -0.875, M -0.254, A -0.605
L34: M -0.798, Q -0.577, C -0.825, P -0.955, F -0.724, E -0.639, G -0.973, S -0.621, T -0.957, I -0.083, H -0.881, V -0.83, R -0.981
K32: C -0.167, V -0.116, Y -0.062, D -0.012, H -0.154, Q 0.066, R -0.054, W -0.243, P -0.498, E 0.183, I -0.225, S -0.067, F -0.281, M 0.082, L -0.08, A -0.108, G -0.361, T -0.12
D24: G -0.123, N -0.123, E -0.052, L -0.251, M -0.214, I -0.632
